{"source": "patent US7232659", "key": {"[1]": {"target": "FPR-GFP fusion protein (human; Aequorea victoria) (UniProt P21462)", "assay": "flow cytometry, LRG assembly of 30 nM FPR-GFP on αβγ DCNi beads, ligand varied (FIG. 13B); exponent printed as 10^6, read as 10^-6"}, "[2]": {"target": "β2-adrenergic receptor-green fluorescent protein fusion protein (β2AR-GFP) (human; Aequorea victoria) (UniProt P07550)", "assay": "flow cytometry, soluble Gαsβ1γ2 competing with bead-borne Gαsβ1γ2 for isoproterenol-bound β2AR-GFP (FIG. 4E)"}, "[3]": {"target": "hexahistidine-tagged G protein heterotrimer Gαsβ1γ2 (human) (UniProt P63092)", "sequence (P63092 other isoform, or with tags, fused parts or gaps, chain 1 of 3)": "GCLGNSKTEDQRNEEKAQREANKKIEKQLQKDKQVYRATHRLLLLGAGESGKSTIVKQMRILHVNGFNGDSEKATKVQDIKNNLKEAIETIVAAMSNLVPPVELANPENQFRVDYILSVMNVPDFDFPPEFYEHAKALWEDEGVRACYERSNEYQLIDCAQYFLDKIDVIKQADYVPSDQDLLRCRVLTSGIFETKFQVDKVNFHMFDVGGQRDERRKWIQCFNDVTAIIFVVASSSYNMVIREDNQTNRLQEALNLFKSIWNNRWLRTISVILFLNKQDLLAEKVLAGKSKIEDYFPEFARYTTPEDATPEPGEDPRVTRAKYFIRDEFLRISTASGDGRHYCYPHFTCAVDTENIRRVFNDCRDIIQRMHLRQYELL", "sequence (P62873 2-340, chain 2 of 3, further chain)": "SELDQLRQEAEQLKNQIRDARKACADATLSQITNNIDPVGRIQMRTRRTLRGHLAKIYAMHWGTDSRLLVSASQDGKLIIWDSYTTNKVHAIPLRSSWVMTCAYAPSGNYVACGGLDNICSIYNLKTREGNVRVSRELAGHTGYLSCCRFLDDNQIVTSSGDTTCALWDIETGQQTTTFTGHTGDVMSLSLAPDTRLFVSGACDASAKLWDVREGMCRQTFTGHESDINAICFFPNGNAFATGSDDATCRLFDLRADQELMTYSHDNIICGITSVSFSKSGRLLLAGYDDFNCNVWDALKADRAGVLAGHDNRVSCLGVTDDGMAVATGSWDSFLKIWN", "sequence (P59768 other isoform, or with tags, fused parts or gaps, chain 3 of 3, further chain)": "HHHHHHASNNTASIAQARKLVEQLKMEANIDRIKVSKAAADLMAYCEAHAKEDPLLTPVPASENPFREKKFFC", "assay": "flow cytometry, Gαsβ1γ2 on Ni beads, 40 nM β2AR-GFP with 1 mM isoproterenol; background with 0.1 mM GTPγS about 10,000 β2AR-GFP/bead"}, "[4]": {"target": "hexahistidine-tagged G protein heterotrimer Gαsβ1γ2 (human) (UniProt P63092)", "assay": "flow cytometry, ARG assembly of 20 nM β2AR-GFP on Gαsβ1γ2 Ni beads, receptor occupied by dobutamine (FIG. 5B)"}, "[5]": {"target": "hexahistidine-tagged G protein heterotrimer Gαsβ1γ2 (human) (UniProt P63092)", "assay": "flow cytometry, ARG assembly of 20 nM β2AR-GFP on Gαsβ1γ2 Ni beads, receptor occupied by salbutamol (FIG. 5B)"}}, "data": [{"substance": "fML (peptide)", "values": [{"measurement": "EC50", "setting": "[1]", "value": 5300, "unit": "nM"}]}, {"substance": "hexahistidine-tagged G protein heterotrimer Gαsβ1γ2 (from UniProt P63092 2-380; P62873 2-340; P59768 2-68)", "values": [{"measurement": "Kd", "setting": "[2]", "value": "90 to 110", "unit": "nM"}]}, {"substance": "β2-adrenergic receptor-green fluorescent protein fusion protein (β2AR-GFP) (from UniProt P07550 1-413; P42212 1-238)", "values": [{"measurement": "total fluorescence, β2AR-GFP/bead (β2AR-GFP/bead)", "setting": "[3]", "value": 80000}, {"measurement": "ARG/bead level against the full agonist isoproterenol", "setting": "[4]", "value": 10, "unit": "percent"}, {"measurement": "ARG/bead level against the full agonist isoproterenol", "setting": "[5]", "value": 30, "unit": "percent"}]}]}
